# Experimental data as given in US20260373285 (published 2026).
# B1: ALGA105S PD-L1 arm (antibody, V domains shown)
# VH: EVQLVQSGAEVKKPGATVKISCKVSGFNIEDTYIYWVQQAPGKGLEWMGWIDPANYNTKYDPRFQDRVTITVDTSTDTAYMELSSLRSEDTAVYYCARGLRLLMDYWGQGTTVTVSS
# VL: DIQLTQSPSFLSASVGDRVTITCKASQNVHTSLAWYQQKPGKSPKLLIYLASNRHTGVPSRFSGSGSGTEFTLTISSLQPEDFATYYCLQHWNYPLTFGQGTKLEIKR
# B2: PD-L1-1.168.15 (antibody, V domains shown)
# VH: EVQLQQSGAELVKPGASVKLSCTVSGFNIEDTYIYWVKQRPEQGLEWIGWIDPANYNTKYDPRFQDKATVTVDTSSNTAYMHLSSLTSEDTAVYYCARGLRLLMDYWGQGTSVTVSS
# VL: DIVMTQSQKFMSSSVGDRVSITCKASQNVHTSLAWYQQRPGQSPKALIYLASNRHTGVPDRFTGSGSGTDFTLTISNVQSEDLADYFCLQHWNYPLTFGAGTKLELRR
# B3: PD-L1-1.168.15-z3-uIgG1K (antibody, V domains shown)
# VH: EVQLVQSGAEVKKPGATVKISCKVSGFNIEDTYIYWVQQAPGKGLEWMGWIDPANYNTKYDPRFQDRVTITVDTSTDTAYMELSSLRSEDTAVYYCARGLRLLMDYWGQGTTVTVSS
# VL: DIQLTQSPSFLSASVGDRVTITCKASQNVHTSLAWYQQKPGKAPKLLIYLASNRHTGVPSRFSGSGSGTEFTLTISSLQPEDFATYYCLQHWNYPLTFGQGTKLEIKR
# B4: ALGA105X PD-L1 arm (antibody, V domains shown)
# VH: EVQLVQSGAEVKKPGATVKISCKVSGFNIEDTYIYWVQQAPGKGLEWMGWIDPANYNTKYDPRFQDRVTITVDTSTDTAYMELSSLRSEDTAVYYCARGLRLLMDYWGQGTTVTVSS
# VL: DIQLTQSPSFLSASVGDRVTITCKASQNVHTSLAWYQQKPGKSPKLLIYLASNRHTGVPSRFSGSGSGTEFTLTISSLQPEDFATYYCLQHWNYPLTFGQGTKLEIKR
# B5: PD-L1-1.168.15-z4-uIgG1K (antibody, V domains shown)
# VH: EVQLVQSGAEVKKPGATVKISCKVSGFNIEDTYIYWVQQAPGKGLEWMGWIDPANYNTKYDPRFQDRVTITVDTSTDTAYMELSSLRSEDTAVYYCARGLRLLMDYWGQGTTVTVSS
# VL: DIQLTQSPSFLSASVGDRVTITCKASQNVHTSLAWYQQKPGKSPKLLIYLASNRHTGVPSRFSGSGSGTEFTLTISSLQPEDFATYYCLQHWNYPLTFGQGTKLEIKR
# B6: PD-L1-1.168.15-xIgG1K (antibody, V domains shown)
# VH: EVQLQQSGAELVKPGASVKLSCTVSGFNIEDTYIYWVKQRPEQGLEWIGWIDPANYNTKYDPRFQDKATVTVDTSSNTAYMHLSSLTSEDTAVYYCARGLRLLMDYWGQGTSVTVSS
# VL: DIVMTQSQKFMSSSVGDRVSITCKASQNVHTSLAWYQQRPGQSPKALIYLASNRHTGVPDRFTGSGSGTDFTLTISNVQSEDLADYFCLQHWNYPLTFGAGTKLELRR
# Key:
# hPD-L1(ECD)-His [1] = molecular target: T1, hPD-L1(ECD)-His (human, UniProt Q9NZQ7); test: SPR
# T1 sequence (Q9NZQ7 19-238): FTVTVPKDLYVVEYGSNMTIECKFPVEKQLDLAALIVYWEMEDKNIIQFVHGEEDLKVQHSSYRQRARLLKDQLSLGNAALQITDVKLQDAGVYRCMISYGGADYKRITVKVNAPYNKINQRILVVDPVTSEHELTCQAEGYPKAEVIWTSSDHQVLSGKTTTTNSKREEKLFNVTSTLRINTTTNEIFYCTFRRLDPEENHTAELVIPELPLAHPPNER
# hPD-L1(ECD)-His [2] = molecular target: T1, hPD-L1(ECD)-His; test: SPR; remark: listed apart in the source
# hPD-L1(ECD)-His [3] = molecular target: T1, hPD-L1(ECD)-His; test: SPR; remark: listed apart in the source
# [4] = molecular target: T2, human PD-L1 full length (on CHO cells) (human, UniProt Q9NZQ7); test: competition FACS vs PD-1
# T2 sequence (Q9NZQ7 19-238): as above
# cPD-L1(ECD)-His = cPD-L1(ECD)-His (cynomolgus); test: ELISA
# Chain of cPD-L1(ECD)-His (cynomolgus) (chain, as listed by the source): as the sequence (Q9NZQ7 19-238) above, with A33T, A34S, S62N, R68Q, Q82R, F173L, T185A, T192I, H215L counted along it
# [5] = molecular target: T2, human PD-L1 full length (on CHO cells); test: competition FACS vs CD80
# hPD-L1(ECD)-His [6] = molecular target: T1, hPD-L1(ECD)-His; test: ELISA
# [7] = molecular target: T2, human PD-L1 full length (on CHO cells); test: FACS
# hPD-L1(ECD)-His [8] = molecular target: T1, hPD-L1(ECD)-His; test: SPR supernatant
# hPD-L1(ECD)-His [9] = molecular target: T1, hPD-L1(ECD)-His; test: SPR; remark: listed apart in the source
Binder,Kd (hPD-L1(ECD)-His [1]) [nM],Kd (hPD-L1(ECD)-His [2]) [nM],Kd (hPD-L1(ECD)-His [8]) [nM],Kd (hPD-L1(ECD)-His [9]) [nM],further results
B1,0.824,0.824,–,–,–
B2,–,–,–,–,Kd (hPD-L1(ECD)-His [3]): 0.295 nM; IC50 [4]: 3 nM; EC50 (cPD-L1(ECD)-His): 0.38 nM; IC50 [5]: 2.07 nM; EC50 (hPD-L1(ECD)-His [6]): 0.028 nM; EC50 [7]: 1.02 nM
B3,–,–,0.837,0.876,–
B4,0.822,0.822,–,–,–
B5,–,0.647,0.775,0.613,–
B6,–,–,0.379,0.275,–
